From the Human Domainome abundance scans (Beltran et al. 2025)
± gives the uncertainty stated by the source.

B1: SWI/SNF complex subunit SMARCC2, residues 599 to 641; numbered along this chain, Q8TAQ2 (parent)
chain: REWTEQETLLLLEALEMYKDDWNKVSEHVGSRTQDECILHFLR

Variants of: B1
Experiment: abundance fitness (aPCA) (normalised: wild type 0, dead -1); higher = more abundant; growth selection in yeast, the domain comes from the species named
Conditions: Homo sapiens

Variant	abundance fitness
REWTEQETLLLLEALEMYKDDWNKVSPHVGSRTQDECILHFLR [E27P]	-0.677 ± 0.25
REWTEQETLLLLEALEMYKDDWNKVSWHVGSRTQDECILHFLR [E27W]	-0.495 ± 0.12
REWTEQETLLLLEALEMYKDDWNKVSQHVGSRTQDECILHFLR [E27Q]	-0.244 ± 0.15
REWTEQETLLLLEALEMYKDDWNKVSNHVGSRTQDECILHFLR [E27N]	-0.042 ± 0.095
REWTEQETLLLLEALEMYKDDWNKVSHHVGSRTQDECILHFLR [E27H]	-0.407 ± 0.18
REWTEQETLLLLEALEMYKDDWNKVSTHVGSRTQDECILHFLR [E27T]	-0.146 ± 0.14
REWTEQETLLLLEALEMYKDDWNKVSRHVGSRTQDECILHFLR [E27R]	-0.022 ± 0.066
REWTEQETLLLLEALEMYKDDWNKVSDHVGSRTQDECILHFLR [E27D]	-0.209 ± 0.14
REWTEQETLLLLEALEMYKDDWNKVSSHVGSRTQDECILHFLR [E27S]	-0.21 ± 0.12
REWTEQETLLLLEALEMYKDDWNKVSLHVGSRTQDECILHFLR [E27L]	-0.473 ± 0.095
REWTEQETLLLLEALEMYKDDWNKVSGHVGSRTQDECILHFLR [E27G]	-0.038 ± 0.092
REWTEQETLLLLEALEMYKDDWNKVSCHVGSRTQDECILHFLR [E27C]	-0.379 ± 0.092
REWTEQETLLLLEALEMYKDDWNKVSEHVTSRTQDECILHFLR [G30T]	-0.031 ± 0.078
REWTEQETLLLLEALEMYKDDWNKVSEHVNSRTQDECILHFLR [G30N]	-0.164 ± 0.1
REWTEQETLLLLEALEMYKDDWNKVSEHVISRTQDECILHFLR [G30I]	-0.147 ± 0.12
REWTEQETLLLLEALEMYKDDWNKVSEHVMSRTQDECILHFLR [G30M]	-0.341 ± 0.12
REWTEQETLLLLEALEMYKDDWNKVSEHVFSRTQDECILHFLR [G30F]	-0.325 ± 0.11
REWTEQETLLLLEALEMYKDDWNKVSEHVYSRTQDECILHFLR [G30Y]	-0.143 ± 0.25
REWTEQETLLLLEALEMYKDDWNKVSEHVWSRTQDECILHFLR [G30W]	-0.832 ± 0.23
REWTEQETLLLLEALEMYKDDWNKVSEHVRSRTQDECILHFLR [G30R]	-0.211 ± 0.088

Variant	abundance fitness
REWTEQETLLLLEALEMYKDDWNKVSEHVDSRTQDECILHFLR [G30D]	-0.07 ± 0.14
REWTEQETLLLLEALEMYKDDWNKVSEHVHSRTQDECILHFLR [G30H]	-0.711 ± 0.12
REWTEQETLLLLEALEMYKDDWNKVSEHVLSRTQDECILHFLR [G30L]	-0.546 ± 0.076
REWTEQETLLLLEALEMYKDDWNKVSEHVASRTQDECILHFLR [G30A]	-0.057 ± 0.085
REWTEQETLLLLEALEMYKDDWNKVSEHVCSRTQDECILHFLR [G30C]	-0.064 ± 0.12
REWTEQETLLLLEALEMYKDDWNKVSEHVKSRTQDECILHFLR [G30K]	-0.011 ± 0.095
REWTEQETLLLLEALEMYKDDWNKVSEHVESRTQDECILHFLR [G30E]	0.092 ± 0.1
REWTEQETLLLLEALEMYKDDWNKVSEHVSSRTQDECILHFLR [G30S]	-0.143 ± 0.084
REWTEQETLLLLEALEMYKDDWNKVSEHVQSRTQDECILHFLR [G30Q]	-0.668 ± 0.13
REWTEQETLLLLEALEMYKDDWNKVSEHVGSRIQDECILHFLR [T33I]	-0.721 ± 0.35
REWTEQETLLLLEALEMYKDDWNKVSEHVGSRCQDECILHFLR [T33C]	-0.064 ± 0.13
REWTEQETLLLLEALEMYKDDWNKVSEHVGSRNQDECILHFLR [T33N]	0.125 ± 0.09
REWTEQETLLLLEALEMYKDDWNKVSEHVGSRDQDECILHFLR [T33D]	0.079 ± 0.23
REWTEQETLLLLEALEMYKDDWNKVSEHVGSRGQDECILHFLR [T33G]	0 ± 0.087
REWTEQETLLLLEALEMYKDDWNKVSEHVGSRYQDECILHFLR [T33Y]	-0.305 ± 0.17
REWTEQETLLLLEALEMYKDDWNKVSEHVGSRFQDECILHFLR [T33F]	-0.684 ± 0.37
REWTEQETLLLLEALEMYKDDWNKVSEHVGSRLQDECILHFLR [T33L]	-0.019 ± 0.075
REWTEQETLLLLEALEMYKDDWNKVSEHVGSRPQDECILHFLR [T33P]	-0.17 ± 0.12
REWTEQETLLLLEALEMYKDDWNKVSEHVGSREQDECILHFLR [T33E]	-0.263 ± 0.23
REWTEQETLLLLEALEMYKDDWNKVSEHVGSRRQDECILHFLR [T33R]	0.123 ± 0.077

Variant	abundance fitness
REWTEQETLLLLEALEMYKDDWNKVSEHVGSRHQDECILHFLR [T33H]	-0.214 ± 0.13
REWTEQETLLLLEALEMYKDDWNKVSEHVGSRKQDECILHFLR [T33K]	0.042 ± 0.2
REWTEQETLLLLEALEMYKDDWNKVSEHVGSRAQDECILHFLR [T33A]	0.045 ± 0.17
REWTEQETLLLLEALEMYKDDWNKVSEHVGQRTQDECILHFLR [S31Q]	0.149 ± 0.24
REWTEQETLLLLEALEMYKDDWNKVSEHVGTRTQDECILHFLR [S31T]	0.287 ± 0.078
REWTEQETLLLLEALEMYKDDWNKVSEHVGMRTQDECILHFLR [S31M]	0.042 ± 0.1
REWTEQETLLLLEALEMYKDDWNKVSEHVGFRTQDECILHFLR [S31F]	-0.411 ± 0.19
REWTEQETLLLLEALEMYKDDWNKVSEHVGPRTQDECILHFLR [S31P]	-0.434 ± 0.14
REWTEQETLLLLEALEMYKDDWNKVSEHVGGRTQDECILHFLR [S31G]	0.054 ± 0.086
REWTEQETLLLLEALEMYKDDWNKVSEHVGARTQDECILHFLR [S31A]	-0.019 ± 0.1
REWTEQETLLLLEALEMYKDDWNKVSEHVGHRTQDECILHFLR [S31H]	-0.085 ± 0.14
REWTEQETLLLLEALEMYKDDWNKVSEHVGRRTQDECILHFLR [S31R]	-0.219 ± 0.11
REWTEQETLLLLEALEMYKDDWNKVSEHVGWRTQDECILHFLR [S31W]	-0.024 ± 0.24
REWTEQETLLLLEALEMYKDDWNKVSEHVGLRTQDECILHFLR [S31L]	-0.49 ± 0.18
REWTEQETLLLLEALEMYKDDWNKVSEHVGYRTQDECILHFLR [S31Y]	0.015 ± 0.14
REWTEQETLLLLEALEMYKDDWNKVSEHVGNRTQDECILHFLR [S31N]	0.057 ± 0.099
REWTEQETLLLLEALEMYKDDWNKVSEHVGERTQDECILHFLR [S31E]	0.12 ± 0.34
REWTEQETLLLLEALEMYKDDWNKVSEHVGDRTQDECILHFLR [S31D]	0.06 ± 0.091
REWTEQETLLLLEALEMYKDDWNKVSEHVGVRTQDECILHFLR [S31V]	-0.218 ± 0.071
